From the Human Domainome abundance scans (Beltran et al. 2025)
± gives the uncertainty stated by the source.

B1: Gamma-crystallin S, residues 96 to 176; numbered along this chain, P22914 (parent)
chain: IQIFEKGDFSGQMYETTEDCPSIMEQFHMREIHSCKVLEGVWIFYELPNYRGRQYLLDKKEYRKPIDWGAASPAVQSFRRI

Variants of: B1
Assay: abundance fitness (aPCA) (normalised: wild type 0, dead -1); higher = more abundant; growth selection in yeast, the domain comes from the species named
Details: Homo sapiens

Variant | abundance fitness
IQIFEKGDFSGQMYETTEDCPSIMEQFHMREIHSCKVLEGVWIFYELPNYRGRQYLLDKKEYRKPIDWGPASPAVQSFRRI [A70P] | 0.042 ± 0.3
IQIFEKGDFSGQMYETTEDCPSIMEQFHMREIHSCKVLEGVWIFEELPNYRGRQYLLDKKEYRKPIDWGAASPAVQSFRRI [Y45E] | -0.794 ± 0.14
IQIFEKGDFSGQMYETTEDCPSIMEQFHMREIHSCKVLEGVWIFVELPNYRGRQYLLDKKEYRKPIDWGAASPAVQSFRRI [Y45V] | -1.07 ± 0.16
IQIFEKGDFSGQMYETTEDCPSIMEQFHMREIHSCKVLEGVWIFHELPNYRGRQYLLDKKEYRKPIDWGAASPAVQSFRRI [Y45H] | -0.123 ± 0.12
IQIFEKGDFSGQMYETTEDCPSIMEQFHMREIHSCKVLEGVWIFGELPNYRGRQYLLDKKEYRKPIDWGAASPAVQSFRRI [Y45G] | -0.669 ± 0.082
IQIFEKGDFSGQMYELTEDCPSIMEQFHMREIHSCKVLEGVWIFYELPNYRGRQYLLDKKEYRKPIDWGAASPAVQSFRRI [T16L] | 0.049 ± 0.056
IQIFEKGDFSGQMYEATEDCPSIMEQFHMREIHSCKVLEGVWIFYELPNYRGRQYLLDKKEYRKPIDWGAASPAVQSFRRI [T16A] | 0.026 ± 0.061
IQIFEKGDFSGQMYEFTEDCPSIMEQFHMREIHSCKVLEGVWIFYELPNYRGRQYLLDKKEYRKPIDWGAASPAVQSFRRI [T16F] | 0.148 ± 0.15
IQIFEKGDFSGQMYEYTEDCPSIMEQFHMREIHSCKVLEGVWIFYELPNYRGRQYLLDKKEYRKPIDWGAASPAVQSFRRI [T16Y] | 0.018 ± 0.085
IQIFEKGDFSGQMYECTEDCPSIMEQFHMREIHSCKVLEGVWIFYELPNYRGRQYLLDKKEYRKPIDWGAASPAVQSFRRI [T16C] | 0.012 ± 0.093
IQIFEKGDFDGQMYETTEDCPSIMEQFHMREIHSCKVLEGVWIFYELPNYRGRQYLLDKKEYRKPIDWGAASPAVQSFRRI [S10D] | -0.12 ± 0.1
IQIFEKGDFSGQMYETTEDCPSIMEQFHMREIPSCKVLEGVWIFYELPNYRGRQYLLDKKEYRKPIDWGAASPAVQSFRRI [H33P] | 0.057 ± 0.062
WQIFEKGDFSGQMYETTEDCPSIMEQFHMREIHSCKVLEGVWIFYELPNYRGRQYLLDKKEYRKPIDWGAASPAVQSFRRI [I1W] | -1.16 ± 0.44
IQIFEKGDFSGQMIETTEDCPSIMEQFHMREIHSCKVLEGVWIFYELPNYRGRQYLLDKKEYRKPIDWGAASPAVQSFRRI [Y14I] | -0.003 ± 0.08
IQIFEKGDFSGQMYETTEDCPSIMEQFHMREIHSCKVLEGVWIFYELPNYRGRPYLLDKKEYRKPIDWGAASPAVQSFRRI [Q54P] | -0.168 ± 0.08
IQIFEKGDFSWQMYETTEDCPSIMEQFHMREIHSCKVLEGVWIFYELPNYRGRQYLLDKKEYRKPIDWGAASPAVQSFRRI [G11W] | -0.171 ± 0.045
IQIFESGDFSGQMYETTEDCPSIMEQFHMREIHSCKVLEGVWIFYELPNYRGRQYLLDKKEYRKPIDWGAASPAVQSFRRI [K6S] | 0.085 ± 0.06

Variant | abundance fitness
IQIFEKGDFSGQMYETTEDCPSIMEQFHMREIHSCKVLEGVWFFYELPNYRGRQYLLDKKEYRKPIDWGAASPAVQSFRRI [I43F] | 0.008 ± 0.089
IQIFEKGDFSGQMYETTEDCPSIMEQFHMREIHSCKVLEGVWIFYALPNYRGRQYLLDKKEYRKPIDWGAASPAVQSFRRI [E46A] | -0.016 ± 0.082
IQIFEKGDFSGQMYETTEDCPSIMEQFHMREIHSCKVLEGVWIFYGLPNYRGRQYLLDKKEYRKPIDWGAASPAVQSFRRI [E46G] | -0.094 ± 0.051
IQIFEKGDFSGQMYETTEDCPSIMEQFHMREIHSCKVLEGVWIFYELPNYRGRQYLLDKNEYRKPIDWGAASPAVQSFRRI [K60N] | 0.111 ± 0.25
IQIFEKGDFSGQMYETTEDCPSIMEQFHMREIHSCKVFEGVWIFYELPNYRGRQYLLDKKEYRKPIDWGAASPAVQSFRRI [L38F] | -0.017 ± 0.071
IQIFEKGDFSGQMYETTEDCPSIMEQIHMREIHSCKVLEGVWIFYELPNYRGRQYLLDKKEYRKPIDWGAASPAVQSFRRI [F27I] | 0.104 ± 0.094
IQIFEKGDFSGQMYETTEDCPSIMEQFHMRKIHSCKVLEGVWIFYELPNYRGRQYLLDKKEYRKPIDWGAASPAVQSFRRI [E31K] | -0.034 ± 0.1
IQIFEKGDFSGQMYETTEDCPSIMEQFHMRQIHSCKVLEGVWIFYELPNYRGRQYLLDKKEYRKPIDWGAASPAVQSFRRI [E31Q] | 0.02 ± 0.097
IQIFEKGDFSGQMYETTEDCPSIMEQFHMREIHSCKVLEGVWIFYELPNYRGRQYLLDKKEYRKPIDWGALSPAVQSFRRI [A71L] | -0.223 ± 0.17
IQIFEKGDFSGQMYETTEDCPSIMEQFHMREIHSCKVLEGVWIFYELPNYRGRQYLLDKKEYRKPIDWGAKSPAVQSFRRI [A71K] | 0.144 ± 0.32
IQIFEKGDFSGQMYETTEDCPSIMEQFHMREIHSCKVLFGVWIFYELPNYRGRQYLLDKKEYRKPIDWGAASPAVQSFRRI [E39F] | -0.025 ± 0.13
IQIFEKGDFSGQMYETTRDCPSIMEQFHMREIHSCKVLEGVWIFYELPNYRGRQYLLDKKEYRKPIDWGAASPAVQSFRRI [E18R] | -0.028 ± 0.044
IQIFEKGDFSGQMYETTDDCPSIMEQFHMREIHSCKVLEGVWIFYELPNYRGRQYLLDKKEYRKPIDWGAASPAVQSFRRI [E18D] | -0.153 ± 0.16
IQIFEKGDFSGQMYETTSDCPSIMEQFHMREIHSCKVLEGVWIFYELPNYRGRQYLLDKKEYRKPIDWGAASPAVQSFRRI [E18S] | 0.016 ± 0.054
IQIFEKGDFSGQMYETTEDCPSIMEQFHMREIHSCKVLEGVWIFYELPNYRGRQYLLDKKEYRKPIDWGAAEPAVQSFRRI [S72E] | 0.125 ± 0.35
IQIFEKGDFSGQMYETTEDCPSIMEQFHMREIHSCKVLEGVWIFYELPNYRGRQYLLDKKEYRKPIDWGAADPAVQSFRRI [S72D] | -0.109 ± 0.32
IQIFEKGDFSGQMYETTEDCPSIMEQFHMREIHSCKVLEGVWIFYELPNYRGRQYLLDKKEYRKPIDWGAASPAVQSFKRI [R79K] | -0.358 ± 0.33
